In patent US20210380680A1 (ZLLP, published 2021):
Values belong to the binder of their own block, whether it stands above or below them.

What was measured:
[1] = target: T1, CLDN18.2 endogenously expressed on SNU620 gastric cancer cells (UniProt P56856-2 1-261, limits assumed); experiment: FACS on SNU620 cells
T1 construct: whole, on cells; also called SU620

[2] = target: T2, human Claudin 18.2 (CLDN18.2) (human, UniProt P56856-2 1-261); experiment: FACS on CHO-CLDN18.2 cells
T2 construct: whole, on cells; recombinantly expressed on CHO, HEK293, NCI-N87, NUGC4 or PANC-1 cells; also called CHO-CLDN18.2

[3] = target: T2, human Claudin 18.2 (CLDN18.2); experiment: FACS on CHO-18.2 cells @30 ug/ml
[4] = target: T3, CLDN18.2 endogenously expressed on SNU601 gastric cancer cells (UniProt P56856-2 1-261); experiment: FACS on SNU601 cells
T3 construct: whole, on cells

binding result [1]: no binding
B1: chimeric 357B8F8 (antibody, human IgG1, kappa, V domains shown)
VH: QVQLKESGPGLVAPSQSLSITCTVSGFSLTSYGVHWVRQPPGKGLEWLGVIWPGGNTNYNSALMSRLSISKDNSKSQVFLKMNSLQTDDTAMYYCARDRRLAMDYWGQGTSVTVSS
VL: DIVMTQSPSSLTVTAGEKVTMTCKSSQSLLNSGNQKNYLTWYQQKPGQPPKLLIYWASTRESGVPDRFTGSGSGTDFTLTISILQAEDLAVYYCQNDYSYPFTFGSGTKLEIKR
notes: chimeric human IgG1

binding result [2]: binds
B2: chimeric 282A12F3 (xi282A12F3) (antibody, human IgG1, kappa, V domains shown)
VH: QVQLKESGPVLVQPSQTLSLTCTVAGFSLTSYNVYWVRQPPGKGLEWMGVIWNTGATRYNSTLKSRLSISKDTSKSQVFLKMNSLQTEDTATYYCARDSAMPAIPFAYWGQGTLVTVSS
VL: DIVMTQSPSSLAVSAGETVTINCKSSQSLFGSVRQKNYLAWYQQKPGQSPKLLIYLASTRESGVPDRFIGSGSGTDFTLTISSVQAEDLAKYYCQQYYDIPWTFGGGTKLELKR
notes: chimeric human IgG1

binding result [3]: binds
binding result [4]: binds
B3: 282A12F3 (rat hybridoma antibody) (antibody, V domains shown)
VH: QVQLKESGPVLVQPSQTLSLTCTVAGFSLTSYNVYWVRQPPGKGLEWMGVIWNTGATRYNSTLKSRLSISKDTSKSQVFLKMNSLQTEDTATYYCARDSAMPAIPFAYWGQGTLVTVSS
VL: DIVMTQSPSSLAVSAGETVTINCKSSQSLFGSVRQKNYLAWYQQKPGQSPKLLIYLASTRESGVPDRFIGSGSGTDFTLTISSVQAEDLAKYYCQQYYDIPWTFGGGTKLELK
notes: purified rat IgG from hybridoma
